Experiments:
human 4-1BB on cells [1] = target: T1, human 4-1BB on cells (human, UniProt Q07011 24-255); assay: flow cytometry on HEK293/h4-1BB cells, APC anti-human secondary
T1 construct: The engineered lines were transduced with NM_001561, amino acids M1 to L255; Residues 1-23 are stated to be the signal peptide; The UniProt number is printed as 007011; This entry also stands for 4-1BB on the Jurkat reporter cells and on primary T cells in the functional assays; also called h4-1BB; TNFRSF9
Experimental: (§1) The ability of the multispecific antigen binding molecules to bind cells was assessed using flow cytometry. Cell lines were chosen to determine the ability of both the anti-CD38 and anti-4-1BB arms to bind their targets. […] Binding was detected by using a labeled secondary antibody and measuring fluorescence on a flow cytometer.
HEK293 and HEK293/4-1BB cells were lifted with trypsin, washed and resuspended in stain buffer (2% FBS in PBS) and added to wells of a 96 well V-bottom plate (3×10⁵ cells/well). A 1:5, 9-point, dose titration of test antibodies was diluted in stain buffer and added to cells to a final concentration ranging from 1.3 pM to 100 nM (a “no antibody” control was included as the ninth point ([…]) labeled as “secondary only”). Cells and antibodies were incubated for 30 min on ice and then washed in stain buffer. Cells were resuspended in 2 ug/ml allophycocyanin (APC) conjugated goat-anti human secondary antibody and incubated for 30 min on ice. Cells were then washed and resuspended in viability dye (according to the manufacturer's protocol) and incubated for 30 min on ice. Cells were then washed with stain buffer and resuspended in 2% PFA for 30 min on ice. After washing, cells were filtered and analyzed by flow cytometry to determine the geometric mean fluorescence intensity (gMFI), which was subsequently plotted using GraphPad Prism software. EC₅₀ values of the antibodies were determined from a 4-parameter logistic equation over a 9-point dose response curve (including secondary only control).

human 4-1BB on cells [2] = target: T1, human 4-1BB on cells; assay: cell-based or functional assay
[3] = target: T2, human 4-1BB expressed with a C-terminal myc-myc-hexahistidine tag (human, UniProt Q07011 24-186); assay: SPR Biacore 8k, antibody captured by anti-human Fc, h4-1BB.mmH as analyte, 25 C
T2 construct: also called h4-1BB.mmH; REGN3584; not shown: C-terminal myc-myc-hexahistidine tag
T2 sequence (Q07011 24-186 limits assumed): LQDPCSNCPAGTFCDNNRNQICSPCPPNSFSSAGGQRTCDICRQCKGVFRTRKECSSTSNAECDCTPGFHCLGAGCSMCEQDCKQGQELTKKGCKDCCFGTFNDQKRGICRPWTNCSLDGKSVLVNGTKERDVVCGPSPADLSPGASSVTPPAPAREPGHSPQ
Experimental: (§2) Equilibrium dissociation constants (KD values) for human 4-1BB expressed with a C-terminal myc-myc-hexahistidine tag (h4-1BB.mmH, REGN3584) or human 4-1BB expressed with a C-terminal murine Fc tag (h4-1BB.mFc, REGN3585) binding to purified anti-CD38×4-1BB 1+2 antibodies were determined using a real-time surface plasmon resonance biosensor using a Biacore 8k instrument. The CM5 Biacore sensor surface was derivatized by amine coupling with a monoclonal mouse anti-human Fc antibody (REGN2567). All Biacore binding studies were performed in a buffer composed of 0.01M HEPES pH 7.4, 0.15M NaCl, 3 mM EDTA, 0.05% v/v Surfactant P20 (HBS-EP running buffer). […] Antibody-reagent association was monitored for 5 minutes while dissociation in HBS-EP running buffer was monitored for 10 minutes. At the end of each cycle, the anti-CD38×4-1BB 1+2 antibody capture surface was regenerated using a 10 second injection of 20 mM phosphoric acid. All binding kinetics experiments were performed at 25° C.
(§3) Kinetic association (kₐ) and dissociation (kd) rate constants were determined by fitting the real-time sensorgrams to a 1:1 binding model using Cytiva Insight curve fitting software. Binding dissociation equilibrium constants (KD) and dissociative half-lives (t/2) were calculated from the kinetic rate constants as: […]

human 4-1BB on cells [4] = target: T1, human 4-1BB on cells; assay: cell-based or functional assay; remark: listed apart in the source
[5] = target: T3, human CD38 endogenously expressed on MOLP8 cells (human, UniProt P28907 1-300); assay: flow cytometry on MOLP8 cells (endogenous hCD38), APC anti-human secondary
T3 construct: whole, on cells; also called hCD38
Experimental: as §1
HEK293 cells were lifted with trypsin, washed and resuspend in stain buffer (2% FBS in PBS). MOLP8 cells were washed and resuspended in stain buffer. Cells were added to wells of a 96 well V-bottom plate (3×10⁵ cells/well). A 1:4, 9-point, dose titration of test antibodies was diluted in stain buffer and added to cells to a final concentration ranging from 610 fM to 10 nM (a “no antibody” control was included as the ninth point (153fM), labeled as “secondary only”). Cells and antibodies were incubated for 30 min on ice and then washed in stain buffer. Cells were resuspended in 2 ug/ml allophycocyanin (APC) conjugated goat-anti human secondary antibody and incubated for 30 min on ice. Cells were then washed and resuspended in viability dye (according to the manufacturer's protocol) and incubated for 30 min on ice. Cells were then washed with stain buffer and resuspended in 2% PFA for 30 min on ice. After washing, cells were filtered and analyzed by flow cytometry to determine the geometric mean fluorescence intensity (gMFI), which was subsequently plotted using GraphPad Prism software. EC₅₀ values of the antibodies were determined from a 4-parameter logistic equation over a 9-point dose response curve (including secondary only control, representing the ninth point).

human 4-1BB on cells [6] = target: T1, human 4-1BB on cells; assay: cell-based or functional assay; remark: listed apart in the source
[7] = target: T4, human 4-1BB expressed with a C-terminal murine Fc tag (human, UniProt Q07011 24-186); assay: SPR Biacore 4000, h4-1BB.mFc captured by anti-mouse Fc, antibody as analyte, 25 C
T4 construct: also called h4-1BB.mFc; REGN3585; not shown: C-terminal murine Fc tag
T4 sequence (Q07011 24-186 limits assumed): as above
Experimental: Equilibrium dissociation constants (KD values) for human 4-1BB expressed with a C-terminal murine Fc tag (h4-1BB.mFc, REGN3585) binding to purified anti-CD38×4-1BB 1+2 antibodies were determined using a real-time surface plasmon resonance biosensor using a Biacore 4000 instrument. […] All Biacore binding studies were performed in a buffer composed of 0.01M HEPES pH 7.4, 0.15M NaCl, 3 mM EDTA, 0.05% v/v Surfactant P20 (HBS-EP running buffer). Different concentrations of CD38×4-1BB 1+2 constructs prepared in HBS-EP running buffer (ranging from 100 to 6.25 nM in 4-fold serial dilutions) were injected over the h4-1BB.mFc (REGN3585) captured surface at a flow rate of 30 μL/minute. Antibody-reagent association was monitored for 5 minutes while dissociation in HBS-EP running buffer was monitored for 10 minutes. At the end of each cycle, the h4-1BB.mFc capture surface was regenerated using a 40 sec injection of 10 mM glycine, pH 1.5. All binding kinetics experiments were performed at 25° C.
as §3

[8] = target: T4, human 4-1BB expressed with a C-terminal …; assay: SPR Biacore 8k, antibody captured by anti-human Fc, h4-1BB.mFc as analyte, 25 C
Experimental: as §2, §3

human 4-1BB on cells [9] = target: T1, human 4-1BB on cells; assay: cell-based or functional assay; remark: listed apart in the source

T1 sequence (Q07011 24-255): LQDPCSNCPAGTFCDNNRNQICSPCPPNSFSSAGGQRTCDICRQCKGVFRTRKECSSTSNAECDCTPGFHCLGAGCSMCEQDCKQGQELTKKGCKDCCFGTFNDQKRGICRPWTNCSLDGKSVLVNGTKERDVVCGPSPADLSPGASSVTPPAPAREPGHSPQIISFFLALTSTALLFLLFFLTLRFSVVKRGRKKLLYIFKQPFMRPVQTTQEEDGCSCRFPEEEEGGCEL

B1: REGN7650 (bispecific antibody, human IgG4 S228P, kappa)
heavy 1: EVQLVESGGGLVQPGGSLRLPCAASGFTFSSYAMSWVRQAPGKGLEWVADISGSGGDTYYVDSVKGRFTISRDNSKNTLYLQMNSLRIEDTAVYYCAKGRWHWNYEGFDIWGQGTMVTVSSASTKGPSVFPLAPCSRSTSESTAALGCLVKDYFPEPVTVSWNSGALTSGVHTFPAVLQSSGLYSLSSVVTVPSSSLGTKTYTCNVDHKPSNTKVDKRVESKYGPPGGGGSGGGGSGGGGSQVQLVESGGDVVQPGRSLRLSCTASGFTFSSFGMHWVRQAPGKGLEWVTFLSYDGSYKYYADSVKGRFTISRDNSKNTLYLQMNSLRAEDTAIFYCARDWLDYWGQGTLVTVSSASTKGPSVFPLAPCSRSTSESTAALGCLVKDYFPEPVTVSWNSGALTSGVHTFPAVLQSSGLYSLSSVVTVPSSSLGTKTYTCNVDHKPSNTKVDKRVESKYGPPCPPCPAPPVAGPSVFLFPPKPKDTLMISRTPEVTCVVVDVSQEDPEVQFNWYVDGVEVHNAKTKPREEQFNSTYRVVSVLTVLHQDWLNGKEYKCKVSNKGLPSSIEKTISKAKGQPREPQVYTLPPSQEEMTKNQVSLTCLVKGFYPSDIAVEWESNGQPENNYKTTPPVLDSDGSFFLYSRLTVDKSRWQEGNVFSCSVMHEALHNRFTQKSLSLSPGK
heavy 2: EVQLVESGGGLVQPGRSLRLSCAASGFTFDDYAMHWVRQAPGKGLEWVSGISWKSDNIGYADSVKGRFTISRDNAKNSLYLQMNSLRAEDTALYYCAKALGGWKFDYYYGMDVWGQGTTVTVSSASTKGPSVFPLAPCSRSTSESTAALGCLVKDYFPEPVTVSWNSGALTSGVHTFPAVLQSSGLYSLSSVVTVPSSSLGTKTYTCNVDHKPSNTKVDKRVESKYGPPCPPCPAPPVAGPSVFLFPPKPKDTLMISRTPEVTCVVVDVSQEDPEVQFNWYVDGVEVHNAKTKPREEQFNSTYRVVSVLTVLHQDWLNGKEYKCKVSNKGLPSSIEKTISKAKGQPREPQVYTLPPSQEEMTKNQVSLTCLVKGFYPSDIAVEWESNGQPENNYKTTPPVLDSDGSFFLYSRLTVDKSRWQEGNVFSCSVMHEALHNHYTQKSLSLSLGK
light: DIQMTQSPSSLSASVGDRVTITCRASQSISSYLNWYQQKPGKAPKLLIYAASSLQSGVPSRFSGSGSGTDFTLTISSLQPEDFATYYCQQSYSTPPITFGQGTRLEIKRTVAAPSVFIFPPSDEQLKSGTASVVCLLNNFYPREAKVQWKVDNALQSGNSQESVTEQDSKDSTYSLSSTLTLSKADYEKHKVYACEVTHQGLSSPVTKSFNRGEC
notes: 1+2 format, hIgG4P-PVA; also called CD38x4-1BB (1 + 2); 26812P2 x 25898P2 (IN) + 35321P2 (OUT)
With B1 the EC50 (human 4-1BB on cells [1]) was 0.997 nM, the “MAX gMFI” value (human 4-1BB on cells [1]) was 1e+06 gMFI and the “EC50 of IL-2 release, T cells + HEK293/CD20/CD38 + REGN1979” value (human 4-1BB on cells [2]) was 0.014 nM. The “EC50 of IL-2 release, T cells + MOLP-8 + REGN5458” value (human 4-1BB on cells [2]) was 0.0317 nM, the “MAX IL-2 release, T cells + HEK293/CD20 + REGN1979” value (human 4-1BB on cells [2]) was 184 pg/mL and the “MAX IL-2 release, T cells + HEK293/CD20/CD38 + IsoC” value (human 4-1BB on cells [2]) was 10 pg/mL. For the same binder, the “MAX IL-2 release, T cells + HEK293/CD20/CD38 + REGN1979” value (human 4-1BB on cells [2]) was 2720 pg/mL, the “MAX IL-2 release, T cells + MOLP-8 + IsoC” value (human 4-1BB on cells [2]) was 288 pg/mL and the “MAX IL-2 release, T cells + MOLP-8 + REGN5458” value (human 4-1BB on cells [2]) was 553 pg/mL. For the same binder, the “100 nM h4-1BB.mmH Bind (RU)” value [3] was 41.9 RU, the Kd [3] was 20.4 nM and the koff [3] was 0.00535 s⁻¹. The kon [3] was 262000 M⁻¹ s⁻¹, the t½ [3] was 2.2 min and the “EC50 of IFNγ release, T cells + NALM-6 + Cemiplimab” value (human 4-1BB on cells [4]) was 0.156 nM. For the same binder, the “MAX gMFI” value [5] was 140000 gMFI, the “EC50 of luciferase activity, HEK293/NFkB-Luc/h4-1BB reporter + OPM2” value (human 4-1BB on cells [6]) was 0.0989 nM and the “MAX luciferase activity, HEK293/NFkB-Luc/h4-1BB reporter + HEK293/CD20” value (human 4-1BB on cells [6]) was 1.5e+06 RLU. For the same binder, the “MAX luciferase activity, HEK293/NFkB-Luc/h4-1BB reporter + HEK293/CD20/CD38” value (human 4-1BB on cells [6]) was 2.3e+06 RLU, the “MAX luciferase activity, HEK293/NFkB-Luc/h4-1BB reporter + MOLP-8” value (human 4-1BB on cells [6]) was 2.4e+06 RLU and the “MAX luciferase activity, HEK293/NFkB-Luc/h4-1BB reporter + OPM2” value (human 4-1BB on cells [6]) was 2e+06 RLU. For the same binder, the “100 nM Ab Bind (RU)” value [7] was 266 RU, the Kd [7] was 0.797 nM and the koff [7] was 0.000169 s⁻¹. For the same binder, the kon [7] was 212000 M⁻¹ s⁻¹, the t½ [7] was 1.14 h and the “100 nM h4-1BB.mFc Bind (RU)” value [8] was 152 RU. The Kd [8] was 1.2 nM, the koff [8] was 0.000122 s⁻¹ and the kon [8] was 102000 M⁻¹ s⁻¹. The t½ [8] was 1.58 h, the “EC50 of IL-2 release, T cells + NALM6 + Cemiplimab” value (human 4-1BB on cells [9]) was 0.155 nM and the “EC50 of IL-2 release, T cells + NALM6 + IgG4P” value (human 4-1BB on cells [9]) was 0.179 nM. For the same binder, the “EC50 of IL-2 release, T cells + NALM6/PD-L1 + Cemiplimab” value (human 4-1BB on cells [9]) was 0.283 nM and the “EC50 of IL-2 release, T cells + NALM6/PD-L1 + IgG4P” value (human 4-1BB on cells [9]) was 0.228 nM.
